Results: patent publication US20080181886A1 (Genentech, published 2008)
Positions count from the first letter of the chain named.

Columns and labels:
human BAFF [1] = biological target: T1, human BAFF (human, UniProt Q9Y275 82-285, limits assumed); assay: shotgun scan, phage display
Excerpt: (§1) Phage from each of the libraries described above were subjected to rounds of binding selection against APRIL, BAFF, or anti-tag antibody (3C8:2F4 Genentech, Inc.) immobilized on 96-well Nunc Maxisorp immunoplates (Sidhu, 2001). BSA-coated wells were used to determine non-specific background binding. Phage eluted from each target were propagated in E. coli XL1-Blue in the presence of M13K07 helper phage; amplified phage were used for selection against the same target in the […] round. […] Enrichment was calculated from the ratio of the phage titer eluted from the target-coated wells to the phage titer eluted from the BSA-coated wells. Individual clones from each library and selection target were then grown in a 96-well format in 400 ul of 2YT medium supplemented with carbenicillin and KO7 helper phage. […] Sequences of acceptable quality were translated and aligned. For APRIL-binding, 71, 40, and 54 sequences were analyzed from libraries one, two and three, respectively. For BAFF-binding, 70, 50, and 53 sequences were analyzed for libraries one, two and three, respectively. For the display selection, a minimum of 47 sequences were analyzed for each library. […] F values describe the effect of mutation on target binding, while accounting for differences in display efficiencies, with values >1 representing deleterious mutations and those <1 representing favorable mutations.

Murine APRIL [2] = biological target: T2, Murine APRIL (mouse, UniProt Q9D777 105-241, limits assumed); assay: shotgun scan, phage display
T2 sequence (looked up): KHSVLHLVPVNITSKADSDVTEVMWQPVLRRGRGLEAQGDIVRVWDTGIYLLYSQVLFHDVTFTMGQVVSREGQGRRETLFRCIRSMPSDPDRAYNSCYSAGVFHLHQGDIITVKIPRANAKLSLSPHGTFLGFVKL
Excerpt: as §1

human BAFF [3] = biological target: T1, human BAFF; assay: NNS library, phage display;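 also: ligand versus display occurrence-to-degeneracy ratio and higher means enriched by binding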
Procedure: (§2) This new phage library was subjected to sorting against either BAFF, APRIL or the display target antibody. After 3 rounds of sorting, approximately 48 clones were picked from each selection and the DNA sequences of the phage clones were determined. […] The normalized F′ value corrects for display bias and is calculated as the percent occurrence to percent degeneracy ratio for ligand selection divided by the percent occurrence to percent degeneracy ratio for display efficiency. Percent occurrence is calculated by dividing the number of times a particular amino acid appeared at a particular position by the total number of amino acids sequenced at that position followed by multiplying by 100. Percent degeneracy is calculated by dividing the degeneracy in code for a particular amino acid divided by the total degeneracy possible at that position followed by multiplying by 100 (e.g., if only A, G and I were selected, total degeneracy possible would be 5).

Murine APRIL [4] = biological target: T2, Murine APRIL; assay: NNS library, phage display;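 also: ligand versus display occurrence-to-degeneracy ratio and higher means enriched by binding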
Procedure: as §2

T1 sequence (Q9Y275 82-285 limits assumed): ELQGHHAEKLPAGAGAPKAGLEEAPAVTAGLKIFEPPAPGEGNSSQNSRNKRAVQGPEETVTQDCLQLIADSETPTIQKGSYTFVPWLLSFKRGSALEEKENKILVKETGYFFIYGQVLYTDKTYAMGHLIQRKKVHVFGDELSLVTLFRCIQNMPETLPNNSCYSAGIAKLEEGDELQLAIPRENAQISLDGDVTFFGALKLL

B1: TACI_d2 D80A (receptor)
chain: SLSCRKEQGKFYAHLLRDCISCASICGQHPKQCAYFCENKLR
notes: phage library variant, format as m9
Human BAFF [1]
  F (BAFF): > 42
Murine APRIL [2]
  F (APRIL): > 43

B2: TACI_d2 L108A (receptor)
chain: B1 chain with A13D, L41A
notes: as for B1
Human BAFF [1]
  F (BAFF): 1.2
Murine APRIL [2]
  F (APRIL): 1

B3: TACI_d2 I87T (receptor)
chain: B1 chain with A13D, I20T
notes: as for B1
Human BAFF [1]
  F (BAFF): > 22
Murine APRIL [2]
  F (APRIL): > 19

B4: TACI_d2 I87V (receptor)
chain: B1 chain with A13D, I20V
notes: as for B1
Human BAFF [1]
  F (BAFF): 1.1
Murine APRIL [2]
  F (APRIL): 1.4

B5: TACI_d2 Y79W (receptor)
chain: B1 chain with Y12W, A13D
notes: as for B1
Human BAFF [3]
  F' BAFF: 4
Murine APRIL [4]
  F' APRIL: 3

B6: TACI_d2 Y79N (receptor)
chain: B1 chain with Y12N, A13D
notes: as for B1
Human BAFF [3]
  F' BAFF: 0
Murine APRIL [4]
  F' APRIL: 0

B7: TACI_d2 F78S (receptor)
chain: B1 chain with F11S, A13D
notes: as for B1
Human BAFF [3]
  F' BAFF: 0
Murine APRIL [4]
  F' APRIL: 0
Murine APRIL [2]
  F (APRIL): > 66

B8: TACI_d2 I87A (receptor)
chain: B1 chain with A13D, I20A
notes: as for B1
Human BAFF [1]
  F (BAFF): > 30
Murine APRIL [2]
  F (APRIL): > 27

B9: TACI_d2 K107T (receptor)
chain: B1 chain with A13D, K40T
notes: as for B1
Human BAFF [1]
  F (BAFF): 1.1
Murine APRIL [2]
  F (APRIL): 1.1

B10: TACI_d2 L82V (receptor)
chain: B1 chain with A13D, L15V
notes: as for B1
Human BAFF [1]
  F (BAFF): > 25
Murine APRIL [2]
  F (APRIL): > 20

B11: TACI_d2 D85A (receptor)
chain: B1 chain with A13D, D18A
notes: as for B1
Human BAFF [1]
  F (BAFF): 0.8
Murine APRIL [2]
  F (APRIL): 0.5

B12: TACI_d2 G94A (receptor)
chain: B1 chain with A13D, G27A
notes: as for B1
Human BAFF [1]
  F (BAFF): 10
Murine APRIL [2]
  F (APRIL): 34

B13: TACI_d2 K77T (receptor)
chain: B1 chain with K10T, A13D
notes: as for B1
Human BAFF [1]
  F (BAFF): 0.6
Murine APRIL [2]
  F (APRIL): 0.7

B14: TACI_d2 F103V (receptor)
chain: B1 chain with A13D, F36V
notes: as for B1
Human BAFF [1]
  F (BAFF): 0.7
Murine APRIL [2]
  F (APRIL): 0.6

B15: TACI_d2 K73A (receptor)
chain: B1 chain with K6A, A13D
notes: as for B1
Human BAFF [1]
  F (BAFF): 2
Murine APRIL [2]
  F (APRIL): 1.6

B16: TACI_d2 I92A (receptor)
chain: B1 chain with A13D, I25A
notes: as for B1
Human BAFF [3]
  F' BAFF: 0
Murine APRIL [4]
  F' APRIL: 0
Murine APRIL [2]
  F (APRIL): 11

B17: TACI_d2 L83V (receptor)
chain: B1 chain with A13D, L16V
notes: as for B1
Human BAFF [1]
  F (BAFF): 1.6
Murine APRIL [2]
  F (APRIL): 4.8

B18: TACI_d2 E74A (receptor)
chain: B1 chain with E7A, A13D
notes: as for B1
Human BAFF [1]
  F (BAFF): 0.6
Murine APRIL [2]
  F (APRIL): 0.7

B19: TACI_d2 Y79T (receptor)
chain: B1 chain with Y12T, A13D
notes: as for B1
Human BAFF [3]
  F' BAFF: 0
Murine APRIL [4]
  F' APRIL: 0

B20: TACI_d2 Q75A (receptor)
chain: B1 chain with Q8A, A13D
notes: as for B1
Human BAFF [1]
  F (BAFF): 0.9
Murine APRIL [2]
  F (APRIL): 1.4

B21: TACI_d2 K107A (receptor)
chain: B1 chain with A13D, K40A
notes: as for B1
Human BAFF [1]
  F (BAFF): 1.1
Murine APRIL [2]
  F (APRIL): 0.9

B22: TACI_d2 K73T (receptor)
chain: B1 chain with K6T, A13D
notes: as for B1
Human BAFF [1]
  F (BAFF): 8.9
Murine APRIL [2]
  F (APRIL): 5

B23: TACI_d2 H81P (receptor)
chain: B1 chain with A13D, H14P
notes: as for B1
Human BAFF [1]
  F (BAFF): 0.8
Murine APRIL [2]
  F (APRIL): 1.5

B24: TACI_d2 L82A (receptor)
chain: B1 chain with A13D, L15A
notes: as for B1
Human BAFF [1]
  F (BAFF): > 36
Murine APRIL [2]
  F (APRIL): > 29

B25: TACI_d2 N106A (receptor)
chain: B1 chain with A13D, N39A
notes: as for B1
Human BAFF [1]
  F (BAFF): 0.9
Murine APRIL [2]
  F (APRIL): 1.2

B26: TACI_d2 Y79P (receptor)
chain: B1 chain with Y12P, A13D
notes: as for B1
Human BAFF [3]
  F' BAFF: 3
Murine APRIL [4]
  F' APRIL: 2

B27: TACI_d2 K77E (receptor)
chain: B1 chain with K10E, A13D
notes: as for B1
Human BAFF [1]
  F (BAFF): 0.9
Murine APRIL [2]
  F (APRIL): 1.4

B28: TACI_d2 Y79Q (receptor)
chain: B1 chain with Y12Q, A13D
notes: as for B1
Human BAFF [3]
  F' BAFF: 0
Murine APRIL [4]
  F' APRIL: 0

B29: TACI_d2 Q75P (receptor)
chain: B1 chain with Q8P, A13D
notes: as for B1
Human BAFF [1]
  F (BAFF): 0.8
Murine APRIL [2]
  F (APRIL): 1.1

B30: TACI_d2 K98T (receptor)
chain: B1 chain with A13D, K31T
notes: as for B1
Human BAFF [1]
  F (BAFF): 8.7
Murine APRIL [2]
  F (APRIL): 6.4

B31: TACI_d2 R84A (receptor)
chain: B1 chain with A13D, R17A
notes: as for B1
Human BAFF [3]
  F' BAFF: 3
Murine APRIL [4]
  F' APRIL: 2
Murine APRIL [2]
  F (APRIL): 1.1

B32: TACI_d2 Q75E (receptor)
chain: B1 chain with Q8E, A13D
notes: as for B1
Human BAFF [1]
  F (BAFF): 0.7
Murine APRIL [2]
  F (APRIL): 0.7

B33: TACI_d2 N106T (receptor)
chain: B1 chain with A13D, N39T
notes: as for B1
Human BAFF [1]
  F (BAFF): 1.2
Murine APRIL [2]
  F (APRIL): 1.6

B34: TACI_d2 Y79V (receptor)
chain: B1 chain with Y12V, A13D
notes: as for B1
Human BAFF [3]
  F' BAFF: 2
Murine APRIL [4]
  F' APRIL: 0

B35: TACI_d2 Y79A (receptor)
chain: B1 chain with Y12A, A13D
notes: as for B1
Human BAFF [3]
  F' BAFF: 0
Murine APRIL [4]
  F' APRIL: 0
Murine APRIL [2]
  F (APRIL): > 21

B36: TACI_d2 L108V (receptor)
chain: B1 chain with A13D, L41V
notes: as for B1
Human BAFF [1]
  F (BAFF): 1.2
Murine APRIL [2]
  F (APRIL): 0.9

B37: TACI_d2 Y79R (receptor)
chain: B1 chain with Y12R, A13D
notes: as for B1
Human BAFF [3]
  F' BAFF: 0
Murine APRIL [4]
  F' APRIL: 0

B38: TACI_d2 L82P (receptor)
chain: B1 chain with A13D, L15P
notes: as for B1
Human BAFF [1]
  F (BAFF): > 61
Murine APRIL [2]
  F (APRIL): > 49
